Tested on: chymotrypsin
Experiment: SDPR surface display protease resistance, anti-6xHis staining, chymotrypsin
Type: cell-based
Settings: HEK-293 cells, up to 40 μg/ml chymotrypsin for 20 minutes
Experimental: Soluble peptides were exposed to 500 U/mL porcine trypsin and analyzed by HPLC. Protease resistance was also assessed by using SDPR-displaying peptides. The SDPR vector is similar to the a surface display GFP FasL(SDGF) vector, but contains a C-terminal 6×His tag (SEQ ID NO: 180) and all basic or aromatic amino acid residues on the stalk removed. Protease resistance is then tested by incubation of cells displaying peptides with trypsin or chymotrypsin, followed by incubation in 10 mM DTT, and staining with an anti-6×His fluorophore-labeled antibody (“6×His” disclosed as SEQ ID NO: 180). If peptides are uncleaved, they retain the His tag and are stained with by the antibody. A control protease-sensitive knottin peptide (SK) was used as a positive control. Cells displaying peptides were treated with up to 40 μg/ml trypsin or chymotrypsin.
To determine the impact of protease treatment or reducing condition on the function of the peptides, i.e., binding activity, various binding or functional assays can be performed. […] After treatment with the protease and reducing agent, any linearized peptide product or degradation product resulting from reduction and/or proteolysis by treatment with a protease can be detected or analyzed by staining against the 6×His tag (SEQ ID NO: 180). […]

GSPDEYIERAKECCKKQDIQCCLRIFDESKDPNVMLICLFCW [SEQ ID NO: 43]
resistance of surface-displayed peptide to cleavage by chymotrypsin: partially resistant

Source: US20190375786A1, “STABLE PEPTIDES AND METHODS OF USE THEREOF” (Fred Hutchinson Cancer Research Center, priority 2016, published 2019)
